Reference: the nanobody polyreactivity screen of Harvey et al. (2022)

Assay: yeast display, Sf9 membrane polyspecificity reagent, FACS + sequencing; frameworks hold sequencing errors
Method in brief: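 Polyreactivity labels are assigned by the sorting gate from which each nanobody was recovered. The gates were low and high (top ~1%), set on anti-HA fluorescence for expression and streptavidin fluorescence for reagent binding. Before sorting, galactose-induced (36–48 hours) yeast display cells were stained for 1 hour at 4 °C with 10% biotinylated, detergent-solubilized Sf9 membrane reagent.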

Row | Sequence | polyreactivity (PSR sort gate)
1 | QVQLVESGGVLVQAGGSLRLSCAASGRTVTVNAMGWYRQAPGKERELVAAITGRGGNTNYADSLKGRFTISRDNAKNTVYLQMNSQKPEDTAVFYCYARYHGRAKHDYWGQGTQVTVSS | high polyreactivity
2 | QVQLVESGGVLVQAGGSLRLSCAASGSIFWSNAMGWSRQAPGKERELVAAITTSDGSTYYADSVKGRFTISRDHAKNTVYLQMNSLKPEDSAVYYCAADASTWYTEEYWGQGTQVTVSS | low polyreactivity
3 | QVQLVESGGVLVQAGGSLRLSCAASGSIFYSYAMGWYRQAPGKDRELVAAITRSGGSTYYADSVKGRFTISRENAKNTVYVQMHSLKPEDTAGYYCNARGKGDYYWGQGTQVTVSS | high polyreactivity
4 | QVQLVESGGVLVQAGGSLRLSCAASGSTFGLNAMGWYRQAPGKERELVAAITRSDITNYADSVKGRFTISRDNAKNTVYLQMNSLKPEDTAVYYCAARGLWPYDYWGQGTQVTVSS | low polyreactivity
5 | QVQLVESGGVLVQAGGSLRLSCAASGSTFHRSAMGWYRQAPGKERELVATINLNTGSTYADSVKGRFTISRDNAKNTVYLQMNSLKPEDTAVYYCAAYGRWPFTWYNYWGQGTQVTVSS | low polyreactivity
6 | QVQLVESGGVLVQAGGSLRLSCAASGSTFSYYTMGWYRQAPGKERELVATISKRGGTTSYADSVKGRFTISRDNAKNTVYLQMNSLKPEDTAVYYCAARYSKVHYAYDYWGQGTQVTVSS | high polyreactivity
7 | QVQLVESGGVLVQAGGSLRLSCAASGSTFYNNAMGWYRQAPGKERALVATISSGGGSTYYADSVKGRFTISRDNEKNTVYLQMNSLKPEDTAVYYCAAYVLPYGEYDYWGQGTQVTVSS | low polyreactivity
8 | QVQLVESGGVLVQAGGSLRLSCAASGSTLSPYVMGWYRQAPGKERELVATISRSGGRTYYADSVKGRFTISRDNAKNTVYLQMNSLKPEETAVYYCAARTYYWGALIVSYDYWGQGTQVTVSS | low polyreactivity
9 | QVQLVESGGVLVQAGGSLRLSCAASGTFVVNDMGWYRQGPGKERELVAALSWSGGSTYYADSVKGRFTISRDNAKNTVYLQMTSLKPEDTAVYYCAADNWWVYPVWYENDYWGQGTQVTVSS | low polyreactivity
10 | QVQLVESGGVLVQAGGSLRLSCAASGTFYPNARGWYRQAPGKDRELVAALSEDGGGTYYADSVKGRFTISRDNAKNTVYLQMNSLKPEDTAVYYCAAEYYDYWYTFDYWGQGTQVTVSS | high polyreactivity
11 | QVQLVESGGVLVQAGGSLRLSCAASGYIFEGNAMGWYRQAPGKERDFVAAITKRGGSTYYADSVKGRFTISRDNAKNTVYLQMNSLKPEDTAVYYCAADRSYPRAGRYDYWGQVTQVTVSS | low polyreactivity
12 | QVQLVESGGVLVQAGGSLRLSCAASRSIFQGYVMGWYRQAPGKERELVAAISYSGDSTYYADSVKGRFTNSRDNAKNTVSLQINSVKPEDTAVYYCNAYRNRYGYRTSSRRYGYWGQGTQVTVSS | high polyreactivity
13 | QVQLVESGGVLVQAGGSLRLSCAASRSTFTSYAMGWSRQAPGKERELVADISFSGGSTYYADSVKGRFTISRDIAKNSVYSQMNRLTPEDTAVYSCAARIYKRYYWGQGTQVTVSS | high polyreactivity
14 | QVQLVESGGVLVQAGGSLRLSCAASVGIFDYYTMGWYRQAPGKERELVAAISASGGITYYADSVKGRFTISRDNANNTVYLQMNSMKPEDTAVYYCAAGVRNDYWWYYYWGQGTQVTVSS | high polyreactivity
15 | QVQLVESGGVLVQAGGSLRLSCAAYGFSFNDYAMGWYRQAPGKERELVAAIDWSGGRTYYADSVKGRFTISRDNAKNTVYLQMNSLKPEDTAVYYCAAVLYSRLYWYRLDYWGQGTQVTVSS | low polyreactivity
16 | QVQLVESGGVLVQAGGSLRVSCAASGGIFPRYTMGWSRQAPGKERELVASITRSGASTYYADSVKGRFTISRDKAKNTVYLPINSQKPEDTWFYYVISDVYVYSVTSHYTSSRLDYWGQGTQVTVSS | high polyreactivity
17 | QVQLVESGGVLVQAGRSLRLSCAASGSPFRIYAMGWYRQAPGKERELVAAISSGGRTNYADSVKGRFTISRDNAKNTVYLQMNSLKPEDTAVYYCATVGYSSSTSGNRYGRAYYYWGQGTQVTVSS | high polyreactivity
